Measurements: patent US20230242592A1, “IDENTIFICATION OF […] PEPTIDES AND USES THEREOF” (priority 2020, published 2023)

Assays:
[1] = molecular target: interaction between RBD and the neutralizing antibody (Severe acute respiratory syndrome coronavirus 2, UniProt P0DTC2); conditions: read-out: IC50 of inhibiting interaction between RBD and the neutralizing antibody
ACE2-HEK293 cells = assay: Trypan blue toxicity in ACE2-HEK293 cells in the presence of virus; conditions: different concentrations; viability ca. 50%
[2] = system: SARS-CoV-2 spike protein pseudotyped lentivirus; assay: SARS-CoV-2 spike pseudotyped lentivirus infection of ACE2-HEK293 cells (luciferase); format: cell-based; conditions: 0.33 uM
SARS-CoV-2 spike RBD = SARS-CoV-2 spike RBD (Severe acute respiratory syndrome coronavirus 2, UniProt P0DTC2)

ACE2
IC50 [1]: 0.03 to 0.035 µM | change in cell viability in the presence of virus (ACE2-HEK293 cells): did not result in statistically significant changes in cell viability | inhibition of pseudotyped virus infection [2]: virtually complete inhibition | RMax, binding to RBD (SARS-CoV-2 spike RBD): 0.5785 ± 0.01557 | Kd (SARS-CoV-2 spike RBD; read-out: dissociation constant / binding affinity with RBD): ~0.003 µM
